In this experiment the target is defatted HSA (human serum albumin) (human, UniProt P02768 25-609). The experiment can be described thus: native acrylamide gel shift, fluorescein-labeled peptide (25 pmol) with defatted HSA (100 pmol).

Ends that are not written are not given here. fluorescein = fluorescein conjugated to the primary amine of the Lys side chain through an MHS ester

B1: fatty acid-conjugated faTraE peptide (peptide)
peptide: CHLDAHWK(fluorescein)G
modifications: not fully specified (residue 1)
notes: also called fatty acid-modified peptide; HOOC-(CH2)15-S-S-peptide
As for B1, the binding result is listed as “binds”.

(Values after patent publication US20100272644A1 (UNIVERSITY OF THE SCIENCES IN PHILADELPHIA, published 2010).)
